These results are taken from publication PMC9886975, “Ligand recognition mechanism of the human relaxin family peptide receptor 4 (RXFP4)” (Nature Communications, 2023).

Ends that are not written are not given here.

One assay concerns RXFP4. To be noted: R23^BA ref 34; R23^BE ref 35; cited from earlier work. An excerpt: Despite these advances, difficulties in obtaining sufficient quantities of native INSL5 hampered our efforts in further exploring the biology of the peptide and its cognate receptor. […] In addition to peptidic analogs, small molecule modulators have been reported in recent years. […] The N-terminal residues (R5^B to L9^B) adopted a loop that is clasped by a short N-terminal α-helix of the A chain through one disulfide bond (C8^A‒C7^B). W24^B contributed massive polar and nonpolar interactions to stabilize the peptide binding via both side chain indole and the carboxylic acid group. The former made a hydrogen bond with T121^3.32 (superscripts denote Ballesteros–Weinstein numbering[32]), as well as cation- ...

Assay [1] deals with human RXFP4 H299A mutant (human) (UniProt Q8TDU9).
The target of assay [2] is T1, human RXFP4 stably expressed on CHO-K1 cells (hRXFP4-CHO) (human, UniProt Q8TDU9 1-374).
T1 construct: relaxin family peptide receptor 4 (RXFP4), human, on stably transfected CHO-K1 cells; source: CHO-K1 cells, stably transfected, on cells
Briefly: competitive binding of a europium-labelled ligand on cells (time-resolved fluorescence); CHO-K1 cells stably transfected with RXFP4 on poly-L-lysine 96-well plates; 5 nM Eu-R3/I5 with increasing amounts of ligand; one-site binding curve. To be noted: one partner purified.

For assay [3], the target named is T1, human RXFP4 stably expressed on CHO-K1 …. The assay is described as follows: cell-based or functional assay.

T1 sequence (Q8TDU9 whole entry): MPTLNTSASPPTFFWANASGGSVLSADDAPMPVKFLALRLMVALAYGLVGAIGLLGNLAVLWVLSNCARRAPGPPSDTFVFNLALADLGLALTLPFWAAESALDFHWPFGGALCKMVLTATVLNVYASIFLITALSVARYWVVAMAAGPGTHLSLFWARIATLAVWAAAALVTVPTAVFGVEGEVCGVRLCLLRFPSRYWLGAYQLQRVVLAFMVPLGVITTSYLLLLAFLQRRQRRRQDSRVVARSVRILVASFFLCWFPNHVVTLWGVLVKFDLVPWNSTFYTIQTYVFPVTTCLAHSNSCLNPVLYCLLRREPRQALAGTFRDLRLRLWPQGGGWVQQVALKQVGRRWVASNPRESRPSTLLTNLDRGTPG
Sequence of human RXFP4 H299A mutant (human) (Q8TDU9 whole entry H299A): as the sequence (Q8TDU9 whole entry) above, with H299A counted along it

“R23^BA: INSL5 with R23^B replaced by alanine (Insulin-like peptide INSL5 B … KESVRLCGLEYIRTVIYICASSAW; Insulin-like peptide INSL5 A … QDLQTLCCTDGCSMTDLSALC; disulfide (positions not given here); ends not checked; also: three disulfide bonds, places not given here; UniProt Q9Y5Q6 23-46; Q9Y5Q6 115-135, looked up, variant R23A)”: the “potency of R23^B mutant vs INSL5” value in the assay on RXFP4 was “reduced potencies”.

B1: recombinant two-chain human insulin-like peptide 5 (INSL5) (ligand)
chain 1: QDLQTLCCTDGCSMTDLSALC
chain 2: KESVRLCGLEYIRTVIYICASSRW
In general, pKi refers to the Ki on a negative log10 scale, so that one unit is a factor of ten. In turn, B1 gave an INSL5-induced cAMP response in HEK293T cells transfected with the mutant receptor: reduction of Emax against wild type in assay [1] of 70%. The molecule also registered a pKi in assay [2] of 8.19. Moreover, in assay [3], the “inhibition of forskolin-induced cAMP responses in CHO-K1 cells stably transfected with RXFP4 (pEC50)” value worked out at 8.8.
